B1: full-length yeast Pac1 with C-terminal FLAG-SNAPf [S. cerevisiae] / yeast Ndl1 coiled-coil domain (Ndl1^CC, residues 2-132) [S. cerevisiae] (parent)
chain 1: MTNWQQQLPLTDTQKNELDKSVLRYLNWNYKQTVRHEHAQDYESVRHAIVTLSGFLLQESVDRQEFISNNDTSNESMVDIDELLLPKKWNSIVRLQKKIIELEQNTETLVSQIKDLNTQVSELAQFKPTTSNGTSAHNVLKWIPRNLPSCLINVESSVTSVKLHPNLPIVFVATDHGKLYAFDLFNYTIPLASLQSHTKAITSMDVLFTNYTNSSKKNYLVIVTASKDLQIHVFKWVSEECKFQQIRSLLGHEHIVSAVKIWQKNNDVHIASCSRDQTVKIWDFHNGWSLKTFQPHSQWVRSIDVLGDYIISGSHDTTLRLTHWPSGNGLSVGTGHEFPIEKVKFIHFIEDSPEIRFRTPSTDRYKNWGMQYCVSASRDRTIKIWEIPLPTLMAHRAPIPNPTDSNFRCVLTLKGHLSWVRDISIRGQYLFSCADDKSVRCWDLNTGQCLHVWEKLHTGFVNCLDLDVDFDSNVTPRQMMVTGGLDCKSNVFMR
chain 2: VPNLDLETAIQIISSLETQLSELEGATKEYENDLEQVISKLKSDLLESQQQNKCNKKQITDLEIQVDELENENIQLRNKIETLQLESDRRLERNVLLEHELLDTKEALQKLRVSKEEATSGETRRNTRSLP
B2: LIS1, wild type, as used in mass photometry (construct not told) [human] / human Ndel1 coiled-coil domain (Ndel1^CC, residues 1-195) [human] (parent)
chain 1: MVLSQRQRDELNRAIADYLRSNGYEEAYSVFKKEAELDVNEELDKKYAGLLEKKWTSVIRLQKKVMELESKLNEAKEEFTSGGPLGQKRDPKEWIPRPPEKYALSGHRSPVTRVIFHPVFSVMVSASEDATIKVWDYETGDFERTLKGHTDSVQDISFDHSGKLLASCSADMTIKLWDFQGFECIRTMHGHDHNVSSVAIMPNGDHIVSASRDKTIKMWEVQTGYCVKTFTGHREWVRMVRPNQDGTLIASCSNDQTVRVWVVATKECKAELREHEHVVECISWAPESSYSSISEATGSETKKSGKPGPFLLSGSRDKTIKMWDVSTGMCLMTLVGHDNWVRGVLFHSGGKFILSCADDKTLRVWDYKNKRCMKTLNAHEHFVTSLDFHKTAPYVVTGSVDQTVKVWECR
chain 2: MDGEDIPDFSSLKEETAYWKELSLKYKQSFQEARDELVEFQEGSRELEAELEAQLVQAEQRNRDLQADNQRLKYEVEALKEKLEHQYAQSYKQVSVLEDDLSQTRAIKEQLHKYVRELEQANDDLERAKRATIVSLEDFEQRLNQAIERNAFLESELDEKESLLVSVQRLKDEARDLRQELAVRERQQEVTRKSA

In the first test the parent is B1. In words: mass photometry. The note with it: with yeast Ndl1 coiled-coil domain (Ndl1^CC, residues 2-132) [S. cerevisiae]; Proteins mixed at a 1:1 molar ratio.
For chain 1 MTNWQQQLPLTDTQKNELDKSVLRYLNWNYKQTVRHEHAQDYESVRHAIVTLSGFLLQESVDRQEFISNNDTSNESMVDIDELLLPKKWNSIVRLQKKIIELEQNTETLVSQIKDLNTQVSELAQFKPTTSNGTSAHNVLKWIPRNLPSCLINVESSVTSVKLHPNLPIVFVATDHGKLYAFDLFNYTIPLASLQSHTKAITSMDVLFTNYTNSSKKNYLVIVTASKDLQIHVFKWVSEECKFQQIRSLLGHEHIVSAVKIWQKNNDVHIASCSADQTVKIWDFHNGWSLKTFQPHSQWVASIDVLGDYIISGSHDTTLRLTHWPSGNGLSVGTGHEFPIEKVKFIHFIEDSPEIRFRTPSTDRYKNWGMQYCVSASADRTIKIWEIPLPTLMAHRAPIPNPTDSNFRCVLTLKGHLSAVRDISIRGQYLFSCADDASVRCWDLNTGQCLHVWEKLHTGFVNCLDLDVDFDSNVTPRQMMVTGGLDCKSNVFMR [chain 1 R275A R301A R378A W419A K437A], the screen value came out at 0%.

A further test covers variants of B2. In words: mass photometry. The note with it: with human Ndel1 coiled-coil domain (Ndel1^CC, residues 1-195) [human]; Proteins mixed at a 1:1 molar ratio.
In the case of chain 1 MVLSQRQRDELNRAIADYLRSNGYEEAYSVFKKEAELDVNEELDKKYAGLLEKKWTSVIRLQKKVMELESKLNEAKEEFTSGGPLGQKRDPKEWIPRPPEKYALSGHRSPVTRVIFHPVFSVMVSASEDATIKVWDYETGDFERTLKGHTDSVQDISFDHSGKLLASCSADMTIKLWDFQGFECIRTMHGHDHNVSSVAIMPNGDHIVSASRDKTIKMWEVQTGYCVKTFTGHREWVRMVRPNQDGTLIASCSNDQTVRVWVVATKECKAELREHEHVVECISWAPESSYSSISEATGSETKKSGKPGPFLLSGSADKTIKMWDVSTGMCLMTLVGHDNWVRGVLFHSGGKFILSCADDKTLRVWDYKNKRCMKTLNAHEHFVTSLDFHKTAPYVVTGSVDQTVKVWECR [chain 1 R316A], the screen value came out at 5%. As to chain 1 MVLSQRQRDELNRAIADYLRSNGYEEAYSVFKKEAELDVNEELDKKYAGLLEKKWTSVIRLQKKVMELESKLNEAKEEFTSGGPLGQKRDPKEWIPRPPEKYALSGHRSPVTRVIFHPVFSVMVSASEDATIKVWDYETGDFERTLKGHTDSVQDISFDHSGKLLASCSADMTIKLWDFQGFECIRTMHGHDHNVSSVAIMPNGDHIVSASRDKTIKMWEVQTGYCVKTFTGHREWVRMVRPNQDGTLIASCSNDQTVRVWVVATKECKAELREHEHVVECISWAPESSYSSISEATGSETKKSGKPGPFLLSGSRDKTIKMWDVSTGMCLMTLVGHDNAVRGVLFHSGGKFILSCADDKTLRVWDYKNKRCMKTLNAHEHFVTSLDFHKTAPYVVTGSVDQTVKVWECR [chain 1 W340A], the screen value came out at 0%.
